Values joined by “and” are separate entries in the source; they are usually repeats but may differ in a detail not shown here. Equal entries are not always repeated.

For the assay, the target named is catalytically deactivated LbCpf1 (dLbCpf1)(dLbCas12a) with eight copies of GCN4 epitopes fused to the C-terminus (Lachnospiraceae bacterium). The experiment in a line: cell-based or functional assay.

For “antibody targeted toward the GCN4 epitope fused to hAPOBEC3A (scFv)”, the C to T editing efficiency compared to unfused dCpf1 (NGS, HEK293T cells) was under 5 fold; the C to T editing rate (NGS, HEK293T cells, not sorted for transfected cells) (% of treated cell population) was 7 and 19.
